In patent US20240109974A1 (SHANDONG SIMCERE BIOPHARMACEUTICAL, published 2024):

T1: human TNFR2 on the surface of CHO-TNFR2 cells (human, UniProt P20333 23-461)
T1 construct: whole, on cells
T1 sequence (looked up): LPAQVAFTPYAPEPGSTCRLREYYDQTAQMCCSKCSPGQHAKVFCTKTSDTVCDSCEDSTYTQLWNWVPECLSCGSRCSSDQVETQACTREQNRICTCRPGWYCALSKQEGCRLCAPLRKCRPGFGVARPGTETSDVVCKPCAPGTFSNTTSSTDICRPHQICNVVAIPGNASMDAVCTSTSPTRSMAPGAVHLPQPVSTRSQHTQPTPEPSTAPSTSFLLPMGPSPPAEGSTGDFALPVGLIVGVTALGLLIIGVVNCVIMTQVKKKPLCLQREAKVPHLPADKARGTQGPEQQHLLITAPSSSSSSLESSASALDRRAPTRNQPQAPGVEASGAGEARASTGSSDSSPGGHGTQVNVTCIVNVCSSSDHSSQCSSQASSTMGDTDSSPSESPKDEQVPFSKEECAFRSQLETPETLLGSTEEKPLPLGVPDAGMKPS

T2: human TNFR2 (Novoprotein, Cat #C830) (human, UniProt P20333 23-257, limits assumed)
T2 construct: construct not described; also called human TNFR2 protein
T2 sequence (looked up): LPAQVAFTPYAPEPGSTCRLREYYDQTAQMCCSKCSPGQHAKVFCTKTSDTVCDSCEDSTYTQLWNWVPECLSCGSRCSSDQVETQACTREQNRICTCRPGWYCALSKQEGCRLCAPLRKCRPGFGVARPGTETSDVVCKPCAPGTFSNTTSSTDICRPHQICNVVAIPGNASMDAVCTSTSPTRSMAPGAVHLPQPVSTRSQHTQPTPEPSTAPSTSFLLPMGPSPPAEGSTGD


How the values were obtained:
[1] = target: T1, human TNFR2 on the surface of CHO-TNFR2 …; experiment: competition flow cytometry on CHO-TNFR2 cells, competitor TNFα-biotin; IC50 against 001-WT
Protocol: (§1) CHO stable cells highly expressing human TNFR2 were used for the experiment (the same as CHO-TNFR2 in Example 4). The CHO-TNFR2 cells were digested, washed twice with DPBS, then stained with Live/Dead (L/D) (20 minutes at room temperature), and plated at a density of 1×10⁵ cells/50 μl/well. A test anti-TNFR2 antibody was diluted to 6 μg/ml with a staining buffer as the starting concentration: the antibody was subjected to 3.33-fold gradient dilution, with a total of 7 concentration points. The diluted antibody was added to the plated cells at 50 μl/well, and the mixture was mixed well by gentle pipetting, and incubated at 4° C. for 30 minutes. Then the diluted 100 ng/ml of human TNFα-biotin was added at 100 μl/well, and the mixture was mixed well by gentle pipetting, and then incubated at 4° C. for 30 minutes. The mixture was washed twice with a staining buffer, and then 0.12 μg/ml PE-streptavidin (BioLegend, Cat #405204) was added at 100 μl/well; the resulting mixture was incubated at 4° C. for 30 minutes. The mixture was washed twice with a staining buffer, and then 150 μl of staining buffer was added to resuspend the cells; signals were detected by a flow cytometer (Thermo Attune NxT). The inhibitory curve of an antibody was drawn with antibody concentration as the abscissa and corresponding MFI value as the ordinate, and fitted with four parameters (GraphPad Prism9) to calculate the IC50 value. The smaller the IC50 value, the stronger the ability of an antibody to inhibit the binding of human TNFα to human TNFR2. The blocking effect of a humanized antibody was normalized to its corresponding human-murine chimeric WT antibody. The higher the percentage value, the better the inhibitory effect of the humanized antibody.

[2] = target: T2, human TNFR2 (Novoprotein, Cat #C830); experiment: competition ELISA, competitor human TNFα-Biotin; IC50 against 219-WT
Protocol: 1 μg/ml human TNFR2 (Novoprotein, Cat #C830) was pre-coated with 100 μl/well […] in an ELISA plate. All the test TNFR2 antibodies were subjected to 2.5-fold gradient dilution from the highest concentration of 30 μg/ml; the diluted antibodies were mixed with 15 ng/ml human TNFα-Biotin (Acro Biosystem, Cat #TNA-H82E3) in equal volume, respectively; the resulting mixture was added to the ELISA plate at 100 μl/well, and incubated with shaking at room temperature for 2.0 hours. The plate was washed, and then a Streptavidin-HRP working solution (diluted at 1:10000) was added at 100 μl/well, and the mixture was incubated with shaking at room temperature for 40 minutes. The plate was washed again, and then the substrate TMB of HRP was added to develop colour. A stop solution was added to stop the reaction, and then a microplate reader (MD 13) was used to read the absorbance value. The inhibitory curve of an antibody was drawn with antibody concentration as the abscissa and corresponding OD value as the ordinate, and fitted with four parameters (GraphPad Prism9) to calculate the IC50 value. The smaller the IC50 value, the stronger the ability of an antibody to inhibit the binding of human TNFα to human TNFR2. The blocking effect of a humanized antibody was normalized to its corresponding human-murine chimeric antibody WT. The higher the percentage value, the better the inhibitory effect of the humanized antibody.

[3] = target: T1, human TNFR2 on the surface of CHO-TNFR2 …; experiment: competition flow cytometry on CHO-TNFR2 cells, competitor TNFα-biotin; IC50 against 219-WT
Protocol: as §1

Binder | % Relative activity (WT antibody/test antibody) [1] | % Relative activity (WT antibody/test antibody) [2] | % Relative activity (WT antibody/test antibody) [3]
001-Hu5 (antibody, V domains shown, Humanized form of #001; also called VH1 + VL4) VH: EVQLVESGGGLVQPGGSLRLSCAASGFAFSTYDLSWVRQAPGKGLEWVAYINNGGISTYYSDTVKGRFTISRDNAKNTLYLQMNSLRAEDTAVYYCVRGPFYGSANYFDYWGQGTLVTVSS VL: DIQMTQSPSSLSASVGDRVTITCRTSESIYSNLPWYQQKPGKSPKLLVYDATKLAEGVPSRFSGSGSGTDYTLTISSLQPEDFATYYCQHFWVTPWTFGQGTKVEIK | 86.2% |  | 
001-Hu1 (antibody, V domains shown, Humanized form of #001; also called VH1 + VL1) VH: EVQLVESGGGLVQPGGSLRLSCAASGFAFSTYDLSWVRQAPGKGLEWVAYINNGGISTYYSDTVKGRFTISRDNAKNTLYLQMNSLRAEDTAVYYCVRGPFYGSANYFDYWGQGTLVTVSS VL: DIQMTQSPSSLSASVGDRVTITCRTSESIYSNLPWYQQKPGKAPKLLLYDATKLAEGVPSRFSGSGSGTDYTLTISSLQPEDFATYYCQHFWVTPWTFGQGTKVEIK | 98.3% |  | 
001-Hu2 (antibody, V domains shown, Humanized form of #001; also called VH2 + VL2) VH: EVQLVESGGGLVQPGGSLRLSCAASGFAFSTYDLSWVRQAPGKGLEWVAYINNGGISTYYSDTVKGRFTISRDNAKNSLYLQMNSLRAEDTAVYYCVRGPFYGSANYFDYWGQGTLVTVSS VL: DIQMTQSPSSLSASVGDRVTITCRTSESIYSNLPWYQQKPGKSPKLLIYDATKLAEGVPSRFSGSGSGTDFTLTISSLQPEDFATYYCQHFWVTPWTFGQGTKVEIK | 84.3% |  | 
219-Hu3 (antibody, V domains shown, also called VH5 + VL5) VH: QVQLVQSGAEVKKPGSSVKVSCKASGYSFTNYWMNWVRQAPGQGLEWMGMIHPSDTETRLNQNFKDRVTITADKSTSTAYMELSSLRSEDTAVYYCARGEGLGAARSVSMDYWGQGTLVTVSS VL: DIQMTQSPSSLSASVGDRVTITCRASQDISNYLNWYQQKPDGTVKLLIYYTAILHSGVPSRFSGSGSGTDYSLTISSLQPEDFATYFCQQGNTLPWTFGQGTKVEIK |  | 111% | 120%
219-Hu4 (antibody, V domains shown, also called VH6 + VL5) VH: QVQLVQSGAEVKKPGSSVKVSCKASGYSFTNYWMNWVKQAPGQGLEWIGMIHPSDTETRLNQNFKDKATLTVDKSTSTAYMELSSLRSEDTAVYYCARGEGLGAARSVSMDYWGQGTLVTVSS VL: DIQMTQSPSSLSASVGDRVTITCRASQDISNYLNWYQQKPDGTVKLLIYYTAILHSGVPSRFSGSGSGTDYSLTISSLQPEDFATYFCQQGNTLPWTFGQGTKVEIK |  | 126% | 124%
219-Hu5 (antibody, V domains shown, also called VH7 + VL5) VH: QVQLVQSGAEVKKPGSSVKVSCKASGYSFTNYWMNWVRQAPGQGLEWMGMIHPSDTETRLNQNFKDRVTITVDKSTSTAYMELSSLRSEDTAVYYCARGEGLGAARSVSMDYWGQGTLVTVSS VL: DIQMTQSPSSLSASVGDRVTITCRASQDISNYLNWYQQKPDGTVKLLIYYTAILHSGVPSRFSGSGSGTDYSLTISSLQPEDFATYFCQQGNTLPWTFGQGTKVEIK |  | 136% | 138%

The remaining lines, values ahead:

% Relative activity (WT antibody/test antibody) [1] | % Relative activity (WT antibody/test antibody) [2] | % Relative activity (WT antibody/test antibody) [3] | Binder
100% |  |  | 001-Hu3 (antibody, V domains shown, Humanized form of #001; also called VH1 + VL3) VH: EVQLVESGGGLVQPGGSLRLSCAASGFAFSTYDLSWVRQAPGKGLEWVAYINNGGISTYYSDTVKGRFTISRDNAKNTLYLQMNSLRAEDTAVYYCVRGPFYGSANYFDYWGQGTLVTVSS VL: DIQMTQSPSSLSASVGDRVTITCRTSESIYSNLPWYQQKPGKAPKLLIYDATKLAEGVPSRFSGSGSGTDYTLTISSLQPEDFATYYCQHFWVTPWTFGQGTKVEIK
92.3% |  |  | 001-Hu4 (antibody, V domains shown, Humanized form of #001; also called VH2 + VL4) VH: EVQLVESGGGLVQPGGSLRLSCAASGFAFSTYDLSWVRQAPGKGLEWVAYINNGGISTYYSDTVKGRFTISRDNAKNSLYLQMNSLRAEDTAVYYCVRGPFYGSANYFDYWGQGTLVTVSS VL: DIQMTQSPSSLSASVGDRVTITCRTSESIYSNLPWYQQKPGKSPKLLVYDATKLAEGVPSRFSGSGSGTDYTLTISSLQPEDFATYYCQHFWVTPWTFGQGTKVEIK
 | 120% | 127% | 219-Hu2 (antibody, V domains shown, also called VH4 + VL5) VH: QVQLVQSGAEVKKPGSSVKVSCKASGYSFTNYWMNWVRQAPGQGLEWMGMIHPSDTETRLNQNFKDKATITADKSTSTAYMELSSLRSEDTAVYYCARGEGLGAARSVSMDYWGQGTLVTVSS VL: DIQMTQSPSSLSASVGDRVTITCRASQDISNYLNWYQQKPDGTVKLLIYYTAILHSGVPSRFSGSGSGTDYSLTISSLQPEDFATYFCQQGNTLPWTFGQGTKVEIK
 | 128% | 106% | 219-Hu1 (antibody, V domains shown, also called VH3 + VL5) VH: QVQLVQSGAEVKKPGASVKVSCKASGYSFTNYWMNWVRQAPGQRLEWMGMIHPSDTETRLNQNFKDRVTITRDTSASTAYMELSSLRSEDTAVYYCARGEGLGAARSVSMDYWGQGTLVTVSS VL: DIQMTQSPSSLSASVGDRVTITCRASQDISNYLNWYQQKPDGTVKLLIYYTAILHSGVPSRFSGSGSGTDYSLTISSLQPEDFATYFCQQGNTLPWTFGQGTKVEIK
